According to the supplement of paper PMC7125110:
± gives the standard error. For some of these results: This sample holds only a part of the variants without activity.

B1: glmS ribozyme (parent)
chain: AUAAAAGCGCCAGAACUACAGAAAUGUAGUUGACGAGGAGGAGGUUUAUCGAAUUUUCGGCGGAUGCCUCCAAA

What was measured:
Conditions in all cases: with glucosamine-6-phosphate
[1] = variants of: B1; test: kcat; higher = faster cleavage; RNA array
Summary of the method: (§1)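 Glucosamine-6-phosphate in HEPES/KCl/Mg(OAc)2 buffer, at 40 μM to 10 mM, was flowed over barcoded ribozyme variants transcribed in situ by E. coli RNA polymerase on sequenced MiSeq chips. Tracking was through a hybridised Cy3 probe at 37 °C. kobs, kcat and KM came from exponential decay fits and weighted Michaelis–Menten fits of normalised per-tile medians.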

[2] = variants of: B1; test: KM; higher = weaker cofactor use; RNA array
Summary of the method: as §1

[3] = variants of: B1; test: self-cleavage kobs at 40 uM GlcN6P; higher = faster cleavage; RNA array
Summary of the method: as §1

[4] = variants of: B1; test: self-cleavage kobs at 160 uM GlcN6P; higher = faster cleavage; RNA array
Summary of the method: as §1

[5] = variants of: B1; test: self-cleavage kobs at 640 uM GlcN6P; higher = faster cleavage; RNA array
Summary of the method: as §1

[6] = variants of: B1; test: self-cleavage kobs at 2500 uM GlcN6P; higher = faster cleavage; RNA array
Summary of the method: as §1

[7] = variants of: B1; test: self-cleavage kobs at 10000 uM GlcN6P; higher = faster cleavage; RNA array
Summary of the method: as §1

Row | Variant | kcat [1] [s⁻¹] | KM [2] [µM] | self-cleavage kobs at 40 uM GlcN6P [3] [s⁻¹] | self-cleavage kobs at 160 uM GlcN6P [4] [s⁻¹] | self-cleavage kobs at 640 uM GlcN6P [5] [s⁻¹] | self-cleavage kobs at 2500 uM GlcN6P [6] [s⁻¹] | self-cleavage kobs at 10000 uM GlcN6P [7] [s⁻¹]
1 | AUAAAAGCGCCAGAACUACAGAAAUGUAGUUGACGAAGAGGAGGUUUAUCGAAUUUUCGGCGGAUGCCUCUAAA [G37A C71U] | 0.00282 ± 0.00026 | 2690 ± 370 | 4.51e-05 ± 4.2e-06 | 0.000172 ± 1.9e-05 | 0.000478 ± 4.3e-05 | 0.0015 ± 0.00028 | 0.00225 ± 0.00014
2 | AUAAAAGCGCCAGAACUACAGAAAUGUAGUUGACGUGGAGGAGGUUUAUCGAAUUUUCGGCGGAUGGGUCUAAA [A36U C67G C68G C71U] | 6.17e-05 ± 1.7e-05 |  | 4.88e-05 ± 1.9e-05 |  | 0.000121 ± 3e-05 | 5.55e-05 ± 1.8e-05 | 5.06e-05 ± 1.6e-05
3 | AUAAAAGCGCCAGAACUACAGAAAUGUAGUUGACGAAGAGGAGGUUUAUCGAAUUUUCGGCGGGUGCCUCCAAA [G37A A64G] | 0.00317 ± 0.0014 |  | 6.01e-05 ± 1.3e-05 | 5.16e-05 ± 2.1e-05 | 0.000337 ± 6.8e-05 | 0.000977 ± 0.00019 | 0.002 ± 0.00025
4 | AUAAAAGCGCCAGAACUACAGAAAUGUAGUUGACGAACAGGAGGUUUAUCGAAUUUUCGGCGGAUGUGUCUAAA [G37A G38C C67U C68G C71U] | 2.2e-05 ± 4e-06 |  |  |  |  |  | 
5 | AUAAAAGCGCCAGAACUACAGAAAUGUAGUUGACGAAGAGGAGGUUCAUCGAAUUUUCGGCGGAUGCCUCCAAA [G37A U47C] | 0.000634 ± 0.00022 |  |  | 8.31e-05 ± 2.2e-05 | 0.000181 ± 3.8e-05 | 0.000398 ± 7.7e-05 | 0.00103 ± 0.00045
6 | AUAAAAGCGCCAGAACUACAGAAAUGUAGUUGACGUGGCGGAGGUUUAUCGAAUUUUCGGCGGAUGCCUCCAAA [A36U A39C] | < 1e-05 |  | < 1e-05 | < 1e-05 |  | < 1e-05 | < 1e-05
7 | AUAAAAGCGCCAGAACUACAGAAAUGUAGUUGACGAAGAGGAGGUUUCUCGAAUUUUCGGCGGAUGCCUCCAAA [G37A A48C] | 1.56e-05 ± 6e-07 | 1270 ± 290 |  | < 1e-05 |  |  | 
8 | AUAAAAGCGCCAGAACUACAGAAAUGUAGUUGACGUAGAGGAGGUUUAUCGAAUUUUCGGCGGAUGCCUCCAAA [A36U G37A] | 1.19e-05 ± 3e-06 |  |  |  |  |  | 
9 | AUAAAAGCGCCAGAACUACAGAAAUGUAGUUGACGAAGAGGGGGUUUAUCGAAUUUUCGGCGGAUGCCUCCAAA [G37A A42G] | 0.00683 ± 0.0013 | 3670 ± 920 | 8.75e-05 ± 1.5e-05 | 0.000301 ± 8.8e-05 | 0.000936 ± 0.00014 | 0.00251 ± 0.00044 | 0.00549 ± 0.00094
10 | AUAAAAGCGCCAGAACUACAGAAAUGUAGUUGACGAAGAGGUGGUUUAUCGAAUUUUCGGCGGAUGCCUCCAAA [G37A A42U] | 0.000872 ± 0.00012 | 2220 ± 480 | 2.47e-05 ± 1.1e-05 | 5.06e-05 ± 1.2e-05 | 0.000193 ± 2.3e-05 | 0.00052 ± 6.6e-05 | 0.000669 ± 9.4e-05
11 | AUAAAAGCGCCAGAACUACAGAAAUGUAGUUGACGUGGAGGAGGUUUAUCGAAUUUUCGGCGGAUGCCCCCAAA [A36U U69C] | 2.28e-05 ± 3.7e-06 |  |  |  |  |  | 
12 | AUAAAAGCGCCAGAACUACAGAAAUGUAGUUGACGUGGAGGAGGUUUAUAGAAUUUUCGGCGGAUGCCUCCAAA [A36U C50A] | < 1e-05 |  |  | < 1e-05 |  |  | 
13 | AUAAAAGCGCCAGAACUACAGAAAUGUAGUUGACGAAGAGGAUGUUUAUCGAAUUUUCGGCGGAUGCCUCCAAA [G37A G43U] | 4.94e-05 ± 4.8e-06 | 620 ± 300 | < 1e-05 | < 1e-05 |  | 4.23e-05 ± 7.6e-06 | 4.34e-05 ± 1.1e-05
14 | AUAAAAGCGCCAGAACUACAGAAAUGUAGUUGACGUGGAGGAGGUUUAUCGAAUUUACGGCGGAUCCCUCCAAA [A36U U57A G66C] | < 1e-05 |  |  |  |  |  | 
15 | AUAAAAGCGCCAGAACUACAGAAAUGUAGUUGACGAAGAGGAGGUUUAUCGACUUUUCGGCGGAUGCCUCUAAA [G37A A53C C71U] | 9.8e-05 ± 3.3e-06 | 1010 ± 85 |  |  | 3.79e-05 ± 1.4e-05 | 6.98e-05 ± 1.5e-05 | 
16 | AUAAAAGCGCCAGAACUACAGAAAUGUAGUUGACGAAGAGGAGGUUUAUCGAAUUUUCGGCGGAUCCCUCCAAA [G37A G66C] | 0.000578 ± 0.0001 | 2250 ± 630 |  | 4.54e-05 ± 1.4e-05 | 0.000117 ± 1.8e-05 | 0.000357 ± 5.8e-05 | 0.000439 ± 8.7e-05
17 | AUAAAAGCGCCAGAACUACAGAAAUGUAGUUGACGAAGAGGAGGUGUAUCGAAUUUUCGGCGGAUGCCUCCAAA [G37A U46G] | 0.000363 ± 0.00014 |  |  | 4.31e-05 ± 1.7e-05 | 0.000102 ± 1.4e-05 | 0.000159 ± 2.3e-05 | 0.000421 ± 6.2e-05
18 | AUAAAAGCGCCAGAACUACAGAAAUGUAGUUGACGUGGAGGAGGUUUAUCGAAUUUUCGGCGGAUGUCUCCAAA [A36U C67U] | < 1e-05 |  |  |  |  |  | 
19 | AUAAAAGCGCCAGAACUACAGAAAUGUAGUUGACGUGGAGGAGGUUUAUCGAAUUUUCGGCGGAUGCCUCUAAA [A36U C71U] | < 1e-05 |  |  |  | < 1e-05 |  | 
20 | AUAAAAGCGCCAGAACUACAGAAAUGUAGUUGACGAAGAGGAGGUUUAUCGAAUUUUAGGCGGAUGCCUCCAAA [G37A C58A] | 1.97e-05 ± 3.4e-06 |  |  |  |  |  | 
